Data set [1] concerns HeLa Kyoto. Description: solubility change mitosis vs G1/S (difference of NP-40 vs SDS log2 ratios) (log2 ratio difference); higher = more soluble in mitosis.
Data set [2] concerns HeLa Kyoto. As to the kind of experiment: thermal stability score vs G1/S (z-score of summed log2 fold changes over temperatures); higher = more thermally stable than in G1/S.
The test system of data set [3] is HeLa Kyoto. Description: melting temperature (median over replicates), in situ; higher = more thermally stable.
Data set [4] has as its system HeLa Kyoto. As to the kind of experiment: solubility in G1/S (NP-40 vs SDS abundance) (log2 ratio); higher = more soluble. Particulars: cell cycle stage: G1/S.
Setting [5] is: cell cycle stage: early G1 (4.5 h after nocodazole release).
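Wherever melting temperature (median over replicates), in situ is given: HeLa Kyoto cells synchronized by double thymidine or nocodazole block, proteins quantified by TMT10plex mass spectrometry, three independent biological replicates.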
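Wherever solubility change mitosis vs G1/S (difference of NP-40 vs SDS log2 ratios) is given: synchronized HeLa Kyoto cells (double thymidine block for G1/S, nocodazole release for mitosis), protein amounts in NP-40 versus SDS lysates quantified by mass spectrometry, three biological replicates.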
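Wherever solubility in G1/S (NP-40 vs SDS abundance) is given: HeLa Kyoto cells arrested at G1/S by double thymidine block, proteins quantified by TMT10plex mass spectrometry in mild NP-40 versus SDS extracts, three biological replicates.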
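Wherever thermal stability score vs G1/S (z-score of summed log2 fold changes over temperatures) is given: synchronized HeLa Kyoto cells, proteins quantified by TMT10plex mass spectrometry, three biological replicates, mitosis taken 0.5 h after nocodazole release, G1/S directly after double thymidine block.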

As to “MTECFLPPTSSPSEHRRVEHGSGLTRTPSSEEISPTKFPGLYRTGEPSPPHDILHEPPDVVSDDEKDHGKKKGKFKKKEKRTEGYAAFQEDSSGDEAESPSKMKRSKGIHVFKKPSFSKKKEKDFKIKEKPKEEKHKEEKHKEEKHKEKKSKDLTAADVVKQWKEKKKKKKPIQEPEVPQIDVPNLKPIFGIPLADAVERTMMYDGIRLPAVFRECIDYVEKYGMKCEGIYRVSGIKSKVDELKAAYDREESTNLEDYEPNTVASLLKQYLRDLPENLLTKELMPRFEEACGRTTETEKVQEFQRLLKELPECNYLLISWLIVHMDHVIAKELETKMNIQNISIVLSPTVQISNRVLYVFFTHVQELFGNVVLKQVMKPLRWSNMATMPTLPETQAGIKEEIRRQEFLLNCLHRDLQGGIKDLSKEERLWEVQRILTALKRKLREAKRQECETKIAQEIASLSKEDVSKEEMNENEEVINILLAQENEILTEQEELLAMEQFLRRQIASEKEEIERLRAEIAEIQSRQQHGRSETEEYSSESESESEDEEELQIILEDLQRQNEELEIKNNHLNQAIHEEREAIIELRVQLRLLQMQRAKAEQQAQEDEEPEWRGGAVQPPRDGVLEPKAAKEQPKAGKEPAKPSPSRDRKETSI [RALBP1]”, the “solubility change mitosis (log2)” value in the data set with HeLa Kyoto [1] is 0.12. Also, the thermal stability score in the data set with HeLa Kyoto [2] (setting [5]) is 0.156; in the data set with HeLa Kyoto [2] (cell cycle stage: mitosis), 0.441. Moreover, the figures for the melting temperature with HeLa Kyoto [3] (cell cycle stage: G1/S) and with HeLa Kyoto [3] (cell cycle stage: mitosis) were 47.8 °C and 50.4 °C, respectively. In addition, in the data set on HeLa Kyoto [4], the “solubility in G1/S (log2)” value came to 0.0284.
For “MTERFDCHHCNESLFGKKYILREESPYCVVCFETLFANTCEECGKPIGCDCKDLSYKDRHWHEACFHCSQCRNSLVDKPFAAKEDQLLCTDCYSNEYSSKCQECKKTIMPGTRKMEYKGSSWHETCFICHRCQQPIGTKSFIPKDNQNFCVPCYEKQHAMQCVQCKKPITTGGVTYREQPWHKECFVCTACRKQLSGQRFTARDDFAYCLNCFCDLYAKKCAGCTNPISGLGGTKYISFEERQWHNDCFNCKKCSLSLVGRGFLTERDDILCPDCGKDI [FHL2]”, the “solubility change mitosis (log2)” value with HeLa Kyoto [1] is -0.0906. The thermal stability score in the data set on HeLa Kyoto [2] (setting [5]) is -1.09; in the data set on HeLa Kyoto [2] (cell cycle stage: mitosis), -1.97. The melting temperature in the data set with HeLa Kyoto [3] (cell cycle stage: G1/S) was 52 °C; in the data set on HeLa Kyoto [3] (cell cycle stage: mitosis) it was 51.9 °C. Moreover, the “solubility in G1/S (log2)” value in the data set with HeLa Kyoto [4] is -0.304.
Regarding “MTGNAGEWCLMESDPGVFTELIKGFGCRGAQVEEIWSLEPENFEKLKPVHGLIFLFKWQPGEEPAGSVVQDSRLDTIFFAKQVINNACATQAIVSVLLNCTHQDVHLGETLSEFKEFSQSFDAAMKGLALSNSDVIRQVHNSFARQQMFEFDTKTSAKEEDAFHFVSYVPVNGRLYELDGLREGPIDLGACNQDDWISAVRPVIEKRIQKYSEGEIRFNLMAIVSDRKMIYEQKIAELQRQLAEEEPMDTDQGNSMLSAIQSEVAKNQMLIEEEVQKLKRYKIENIRRKHNYLPFIMELLKTLAEHQQLIPLVEKAKEKQNAKKAQETK [UCHL5]”, the “solubility change mitosis (log2)” value in the data set with HeLa Kyoto [1] is -0.0948. In addition, the figures for the thermal stability score in the data set with HeLa Kyoto [2] (setting [5]) and in the data set on HeLa Kyoto [2] (cell cycle stage: mitosis) were 1.19 and 2.51, respectively. Besides, the results for the melting temperature with HeLa Kyoto [3] (cell cycle stage: G1/S) and in the data set with HeLa Kyoto [3] (cell cycle stage: mitosis) were 48.7 °C and 48.9 °C, respectively. Besides, the “solubility in G1/S (log2)” value in the data set on HeLa Kyoto [4] came to 0.533.
Regarding “MTGQGQSASGSSAWSTVFRHVRYENLIAGVSGGVLSNLALHPLDLVKIRFAVSDGLELRPKYNGILHCLTTIWKLDGLRGLYQGVTPNIWGAGLSWGLYFFFYNAIKSYKTEGRAERLEATEYLVSAAEAGAMTLCITNPLWVTKTRLMLQYDAVVNSPHRQYKGMFDTLVKIYKYEGVRGLYKGFVPGLFGTSHGALQFMAYELLKLKYNQHINRLPEAQLSTVEYISVAALSKIFAVAATYPYQVVRARLQDQHMFYSGVIDVITKTWRKEGVGGFYKGIAPNLIRVTPACCITFVVYENVSHFLLDLREKRK [SLC25A32]”, the “solubility change mitosis (log2)” value with HeLa Kyoto [1] was -0.12. Besides, the thermal stability score in the data set with HeLa Kyoto [2] (setting [5]) is -0.577; in the data set with HeLa Kyoto [2] (cell cycle stage: mitosis), 0.155. The melting temperature in the data set with HeLa Kyoto [3] (cell cycle stage: G1/S) was found to be 56.8 °C; in the data set on HeLa Kyoto [3] (cell cycle stage: mitosis), 56.7 °C. Further, the “solubility in G1/S (log2)” value with HeLa Kyoto [4] was -0.199.
As for “MTGSNSHITILTLKVLPHFESLGKQEKIPNKMSAFRNHCPHLDSVGEITKEDLIQKSLGTCQDCKVQGPNLWACLENRCSYVGCGESQVDHSTIHSQETKHYLTVNLTTLRVWCYACSKEVFLDRKLGTQPSLPHVRQPHQIQENSVQDFKIPSNTTLKTPLVAVFDDLDIEADEEDELRARGLTGLKNIGNTCYMNAALQALSNCPPLTQFFLDCGGLARTDKKPAICKSYLKLMTELWHKSRPGSVVPTTLFQGIKTVNPTFRGYSQQDAQEFLRCLMDLLHEELKEQVMEVEEDPQTITTEETMEEDKSQSDVDFQSCESCSNSDRAENENGSRCFSEDNNETTMLIQDDENNSEMSKDWQKEKMCNKINKVNSEGEFDKDRDSISETVDLNNQETVKVQIHSRASEYITDVHSNDLSTPQILPSNEGVNPRLSASPPKSGNLWPGLAPPHKKAQSASPKRKKQHKKYRSVISDIFDGTIISSVQCLTCDRVSVTLETFQDLSLPIPGKEDLAKLHSSSHPTSIVKAGSCGEAYAPQGWIAFFMEYVKRFVVSCVPSWFWGPVVTLQDCLAAFFARDELKGDNMYSCEKCKKLRNGVKFCKVQNFPEILCIHLKRFRHELMFSTKISTHVSFPLEGLDLQPFLAKDSPAQIVTYDLLSVICHHGTASSGHYIAYCRNNLNNLWYEFDDQSVTEVSESTVQNAEAYVLFYRKSSEEAQKERRRISNLLNIMEPSLLQFYISRQWLNKFKTFAEPGPISNNDFLCIHGGVPPRKAGYIEDLVLMLPQNIWDNLYSRYGGGPAVNHLYICHTCQIEAEKIEKRRKTELEIFIRLNRAFQKEDSPATFYCISMQWFREWESFVKGKDGDPPGPIDNTKIAVTKCGNVMLRQGADSGQISEETWNFLQSIYGGGPEVILRPPVVHVDPDILQAEEKIEVETRSL [USP33]”, the “solubility change mitosis (log2)” value in the data set with HeLa Kyoto [1] is -0.00182. Moreover, the thermal stability score turned out to be 1.09 in the data set with HeLa Kyoto [2] (setting [5]) and 2.47 with HeLa Kyoto [2] (cell cycle stage: mitosis). Besides, the melting temperature in the data set with HeLa Kyoto [3] (cell cycle stage: G1/S) was 51.5 °C; in the data set with HeLa Kyoto [3] (cell cycle stage: mitosis) it was 51 °C. Moreover, in the data set with HeLa Kyoto [4], the “solubility in G1/S (log2)” value was -0.427.

(Values after the supplement of paper PMC5998384.)
